# Results reported in patent US20250304670A1 (AstraZeneca / MedImmune, published 2025).
# Changes are numbered by the printed parent chain. In names and notes the source's numbering stands.
# B1: Abet0007 sFab (Fab, V domains shown)
# VH: EVQLLESGGGLVQPGGSLRLSCAASGFTFSVYTMWWVRQAPGKGLEWVSVIGSSGGTTVYADSVKGRFTISRDNSKNTLYLQMNSLRAEDTAVYYCAREGQQLVRPYYYYGMDVWGQGTLVTVSS
# VL: QSVLTQPPSVSVSPGQTASITCSGHNLEDKFASWYQQKSGQSPVLVIYRDDKRPSGIPERFSASNSGHTATLTISGTQATDEADYYCQAQDSTTRVFGGGTKLTVL
# notes: soluble single chain Fab fragment (sFab) from the Dyax Fab310-Lambda library, histidine tagged, purified from E. coli; also called Abet0007 Fab; purified Abet0007 Fab
# B2: Abet0144-GL IgG1-TM (antibody, V domains shown)
# VH: B1 VH with G100W, Q101M, Q102D, L103H, V104S
# VL: B1 VL with Q1S, S2Y, V3E, S39P, T80M
# notes: human IgG1 with the triple mutation L234F/L235E/P331S (TM), human lambda light chain; also called Abet0144-GL (germlined) IgG1-TM
# Experiments:
# [1] = molecular target: T1, Biotinylated Scrambled Amyloid Beta 1-42 peptide (N-terminal biotin); experiment: direct binding HTRF, purified sFab and scrambled peptide
# T1 construct: Anaspec custom synthesis; control peptide; also called scrambled human Amyloid beta 1-42 peptide; biotinylated scrambled human Amyloid beta 1-42
# T1 peptide: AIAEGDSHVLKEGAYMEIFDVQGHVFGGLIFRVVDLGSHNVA
# [2] = molecular target: T2, Biotinylated Murine Amyloid Beta 1-42 peptide (murine, not fully specified; N-terminal biotin); experiment: direct binding HTRF, purified sFab and biotinylated peptide
# T2 construct: Anaspec 61718-01
# T2 peptide: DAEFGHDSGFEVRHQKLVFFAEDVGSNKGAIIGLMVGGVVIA
# [3] = molecular target: T3, Biotinylated Human Amyloid Beta 1-42 peptide (human, N-terminal biotin); experiment: HTRF direct binding: dilution series of purified His-tagged Fab with biotinylated human Amyloid beta 1-42 peptide, streptavidin cryptate and anti-6his-XL665 (sections 1.3, 1.4)
# T3 construct: synthetic (rPeptide A1117 or Bachem H-5642); also called N-terminal biotin Abeta 1-42; synthetic biotinylated human Amyloid beta 1-42 peptide
# Method: (§1) Selection outputs were screened as unpurified bacterial periplasmic extracts containing sFab, prepared in 50 mM MOPS buffer pH 7.4, 0.5 mM EDTA and 0.5 M sucrose. Ten microlitres of unpurified sFab samples were added to a Costar® 384 well assay plate (Corning, USA; cat: 3676). This was followed by the addition of 5 μl of 20 nM synthetic human Amyloid beta 1-42 and 5 μl of a combined solution of 6 nM streptavidin cryptate and 20 nM anti-his-XL665. Non-specific binding wells (negative controls) were defined for each plate by using a negative control unpurified sFab in place of the test sFab sample. Cross-reactive sFab clones were identified using a concurrent assay with human Amyloid beta 1-40 peptide. […] Assay plates were incubated for 4 hours at room temperature prior to reading time resolved fluorescence on an EnVision plate reader (PerkinElmer, USA) using an excitation wavelength of 320 nm and measuring the emission at 620 nm and 665 nm (100 flashes).
# (§2) The sFab with unique protein sequences were expressed in E. coli and purified by affinity chromatography (essentially as described (Bannister et al., 2006)). The Amyloid beta binding profile of each purified sFab was determined by testing a dilution series of the purified sFab in the HTRF™ assay described in section 1.3, substituting the unpurified sFab periplasmic preparation with the purified sFab.
# [4] = molecular target: T4, Biotinylated Human Amyloid Beta 1-40 peptide (human, N-terminal biotin); experiment: HTRF direct binding: dilution series of purified His-tagged Fab with biotinylated human Amyloid beta 1-40 peptide, streptavidin cryptate and anti-6his-XL665 (sections 1.3, 1.4)
# T4 construct: synthetic
# T4 sequence (peptide, as listed by the source): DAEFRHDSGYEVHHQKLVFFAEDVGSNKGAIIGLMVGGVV
# Method: as §1, §2
# [5] = molecular target: T5, Amyloid beta plaques on human Alzheimer's Disease brain sections (human, UniProt P05067 672-713); experiment: in vitro immunohistochemistry, core plaques
# T5 construct: mixture of Amyloid beta species in tissue; also called native Amyloid beta; human AD brain sections
# [6] = molecular target: T6, Amyloid beta plaques on Tg2576 mouse brain sections (human (transgene in Tg2576 mice), UniProt P05067 672-713); experiment: in vitro immunohistochemistry, core plaques
# T6 construct: mixture of Amyloid beta species in tissue; also called Tg2576 brain sections; Amyloid beta plaques in aged Tg2576 mice
# [7] = molecular target: T7, Human Amyloid Beta 1-42 peptide (human); experiment: SPR (BIAcore T-100), peptide over amine-coupled IgG, 1:1 Langmuir fit
# T7 construct: synthetic, unlabelled; also used here for the endogenous peptide of human plasma in the depletion assay; also called unlabelled human Amyloid beta 1-42; synthetic human Amyloid beta 1-42 peptide
# Method: (§3) The affinity of binding between each test IgG and human Amyloid beta 1-42 was estimated using assays in which the antibody was covalently coupled by amine linkage to a proprietary CM3 chip surface to a final surface density of approximately 2,000 RU. The chip surface was regenerated between cycles by a single 40 second injection of 10 mM Glycine pH 2.0 to remove ligand bound to the antibody.
# Blank reference flow-cell data were subtracted from each IgG dataset and a zero-concentration buffer blank was double-reference subtracted from the main dataset to reduce the impact of any buffer artefacts or non-specific binding effects. An appropriate binding model was then fitted simultaneously to the data from each analyte titration using the BIAevaluation software.
# [8] = molecular target: T8, Human Amyloid Beta 1-16 truncated peptide (human); experiment: TR-FRET peptide competition against biotinylated human Amyloid beta 1-42
# T8 construct: synthetic, unlabelled; also called Abeta 1-16
# T8 peptide: DAEFRHDSGYEVHHQK
# Method: (§4) This involved the use of Europium cryptate labelled anti-human Fc IgG (CisBio International, France; cat: 61 HFCKLB) and XL665 labelled streptavidin (CisBio International, France; cat: 611SAXLB) TR-FRET detection reagents.
# (§5) Experiments were set up in Costar 384 well shallow bottom microtitre plates. […] 5 μl of assay buffer only was added to the negative binding assay control wells. […] 5 μl per well of each test peptide serial dilution was then transferred onto the 384 well assay plate. 5 μl of assay buffer only was added to the total and negative binding assay control wells. […] Finally, a combined solution was prepared containing Europium cryptate labelled anti-human Fc (2.4 nM) and XL665 labelled streptavidin (60 nM). 5 μl per well of this solution was added to all wells of the 384 well assay plate such that the final concentrations of Europium cryptate labelled anti-human Fc and XL665 labelled streptavidin were 0.6 nM and 15 nM, respectively.
# [9] = molecular target: T9, human Amyloid beta pyro 3-42 peptide (human, pyroglutamate at residue 3 (the N-terminal residue)); experiment: as above
# T9 construct: the pyro form (Anaspec 29907) has no entry of its own; also called Abeta pyro-3-42; Abeta Pyro-3-42
# Method: as §4, §5
# [10] = molecular target: T4, Biotinylated Human Amyloid Beta 1-40 …; experiment: SPR (BIAcore T-100), antibody amine-coupled to a CM3 chip, peptide analyte at 400 nM (section 2.9)
# Method: as §3, with “each peptide” for “human Amyloid beta 1-42”, “amine-linkage” for “amine linkage”
# (§6) Blank reference flow-cell data were subtracted from each IgG dataset and a zero-concentration buffer blank was double-reference subtracted from the main dataset to reduce the impact of any buffer artefacts or non-specific binding effects.
# [11] = molecular target: T1, Biotinylated Scrambled Amyloid Beta …; experiment: as above
# Method: as §3, with “each peptide” for “human Amyloid beta 1-42”, “amine-linkage” for “amine linkage”
# as §6
# [12] = molecular target: T10, Human Amyloid Beta 1-40 peptide (human); experiment: TR-FRET peptide competition: dilution series of unlabelled peptide against 1.5 nM biotinylated human Amyloid beta 1-42 peptide for 0.28 nM Abet0144-GL IgG1-TM (section 2.10)
# T10 construct: synthetic, unlabelled; also called unlabelled human Amyloid beta 1-40
# T10 sequence (peptide, as listed by the source): as above
# Method: as §4, §5
Binder,binding result [1],binding result [2],EC50 (read off the curve) [3],binding result [4],plaque staining score (0-4) [5],plaque staining score (0-4) [6],Kd [7],koff [7],kon [7],binding result [8],binding result [9],binding result [10],binding result [11],binding result [12]
B1,no binding,binds,~6 nM,no binding (tested: 1e-7 M (Log M -7)),,,,,,,,,,
B2,,,,,1.5,1,9.5 nM,0.00197 s⁻¹,208000 M⁻¹ s⁻¹,no binding (tested: 10 uM),binds,no binding (tested: 400 nM),no binding (tested: 400 nM),no binding (tested: 1e-5 M (logM -5))
